Measurements as given in PMC8809517, “Cofactor-independent RNA editing by a synthetic S-type PPR protein”.

T1: GFP-9S library array, motif 4 ND N98K;D124K (synthetic construct, N98K;D124K)
T1 chain: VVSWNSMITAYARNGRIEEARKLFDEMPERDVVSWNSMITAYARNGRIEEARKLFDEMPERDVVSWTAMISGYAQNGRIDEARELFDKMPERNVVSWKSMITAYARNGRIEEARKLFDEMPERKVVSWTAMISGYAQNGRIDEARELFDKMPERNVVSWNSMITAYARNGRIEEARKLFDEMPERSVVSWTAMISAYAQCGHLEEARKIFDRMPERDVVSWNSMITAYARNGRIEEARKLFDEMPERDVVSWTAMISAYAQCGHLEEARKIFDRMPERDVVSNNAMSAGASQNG

T2: GFP-9S library array, motif 4 ND N98G;D124A (synthetic construct, N98G;D124A)
T2 chain: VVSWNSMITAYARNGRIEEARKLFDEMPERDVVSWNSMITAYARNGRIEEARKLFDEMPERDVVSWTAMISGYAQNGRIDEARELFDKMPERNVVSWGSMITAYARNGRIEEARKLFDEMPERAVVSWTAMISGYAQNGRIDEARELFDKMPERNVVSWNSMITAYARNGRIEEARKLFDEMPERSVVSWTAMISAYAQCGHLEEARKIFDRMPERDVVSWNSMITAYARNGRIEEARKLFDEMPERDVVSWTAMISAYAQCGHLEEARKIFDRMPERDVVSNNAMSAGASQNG

T3: GFP-9S library array, motif 4 ND N98E;D124W (synthetic construct, N98E;D124W)
T3 chain: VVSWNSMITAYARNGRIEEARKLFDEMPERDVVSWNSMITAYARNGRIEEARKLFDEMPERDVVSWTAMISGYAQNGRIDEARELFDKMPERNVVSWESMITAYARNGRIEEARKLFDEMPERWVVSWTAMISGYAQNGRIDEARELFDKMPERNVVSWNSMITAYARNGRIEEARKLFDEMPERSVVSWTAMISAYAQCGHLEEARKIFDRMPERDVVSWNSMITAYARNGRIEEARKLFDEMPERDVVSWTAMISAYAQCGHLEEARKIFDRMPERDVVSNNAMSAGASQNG

T4: GFP-9S library array, motif 4 ND N98Q;D124N (synthetic construct, N98Q;D124N)
T4 chain: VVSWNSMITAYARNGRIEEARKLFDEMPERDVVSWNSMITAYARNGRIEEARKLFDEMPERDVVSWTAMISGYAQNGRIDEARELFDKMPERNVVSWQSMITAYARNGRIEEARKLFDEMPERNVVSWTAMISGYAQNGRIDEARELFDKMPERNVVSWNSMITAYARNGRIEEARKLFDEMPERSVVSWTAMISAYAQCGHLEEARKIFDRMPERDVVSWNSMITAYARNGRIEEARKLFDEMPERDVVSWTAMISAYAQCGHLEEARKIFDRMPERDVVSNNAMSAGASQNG

T5: GFP-9S library array, motif 4 ND N98C;D124N (synthetic construct, N98C;D124N)
T5 chain: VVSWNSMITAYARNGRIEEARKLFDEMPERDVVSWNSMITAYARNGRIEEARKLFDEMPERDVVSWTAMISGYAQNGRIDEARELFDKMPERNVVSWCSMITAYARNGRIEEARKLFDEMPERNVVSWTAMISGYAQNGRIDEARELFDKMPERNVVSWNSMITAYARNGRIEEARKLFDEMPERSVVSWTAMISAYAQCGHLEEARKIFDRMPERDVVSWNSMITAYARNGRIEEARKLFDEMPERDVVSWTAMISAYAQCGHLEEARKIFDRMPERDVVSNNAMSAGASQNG


Legend:
Assay in all cases: high-throughput RNA pulldown from lysate on Ni-NTA beads; HRP: 50 mM Tris pH 8, 150 mM NaCl, 1 mM beta-mercaptoethanol, 50 ug/ml BSA, 3 ug/ml yeast RNA, 0.5% heparin; ITC and FP: Tris pH 8, 200 mM KCl, 5% glycerol; MST: 50 mM Tris pH 8, 200 mM NaCl, 1 mM DTT, BSA, heparin, 0.05% Tween 20
Conditions in all cases: tags: N-terminal His-eGFP
[1] = molecular target: T1, GFP-9S library array, motif 4 ND …
[2] = molecular target: T2, GFP-9S library array, motif 4 ND …
[3] = molecular target: T3, GFP-9S library array, motif 4 ND …
[4] = molecular target: T4, GFP-9S library array, motif 4 ND …
[5] = molecular target: T5, GFP-9S library array, motif 4 ND …

| Binder | Kd ([1]; label: 5' Cy5) | Kd ([2]; label: 5' Cy5) | Kd ([3]; label: 5' Cy5) | Kd ([4]; label: 5' Cy5) | Kd ([5]; label: 5' Cy5) | Kd ([1]; label: 5' IRDye 800CW) | Kd ([2]; label: 5' IRDye 800CW) | Kd ([3]; label: 5' IRDye 800CW) | Kd ([4]; label: 5' IRDye 800CW) | Kd ([5]; label: 5' IRDye 800CW) |
| --- | --- | --- | --- | --- | --- | --- | --- | --- | --- | --- |
| AUUACACGUGA (ssRNA) [Cy5-rpoA] | 102 nM | 124 nM | 213 nM | 94.7 nM | 213 nM |  |  |  |  |  |
| AUUAGACGUGA (ssRNA) [Cy5-rpoA-G] | 119 nM | 101 nM | 198 nM | 68.6 nM | 346 nM |  |  |  |  |  |
| AUUAAACGUGA (ssRNA) [IR-rpoA-A] |  |  |  |  |  | 254 nM | 133 nM | 630 nM | 118 nM | 45 nM |
| AUUAUACGUGA (ssRNA) [IR-rpoA-U] |  |  |  |  |  | 83.8 nM | 175 nM | 648 nM | 99.2 nM | 152 nM |
